In patent US20140199315A1 (Biogen, published 2014):

B1: 3P1D10.2C3 (antibody, V domains shown)
VH: QVQLQQSGAELARPGASVKLSCRASGYTFTSSWTQWVKQRPGQGLEWIGAIYPGDGDTRYTQKFKGKATLTADKSSSTAYMQLSSLASEDSAVYYCARHNSYGMDYWGQGTSVTVSS
VL: DIVMTQSPSSLTVTAGEKVTMSCKSSQSLLNSGNQKNYLTWYQQKPGQPPKLLIYWASTRESGVPDRFTGSGSGTDFTLTINSVQAEDLAVYYCQNDYSYPLFTFGSGTKLEIR
notes: murine hybridoma monoclonal antibody
B2: 3P1E11.3B7 (antibody, V domains shown)
VH: QVQLQQSGAELARPGASVKLSCRASGYTFTSSWTQWVKQRPGQGLEWIGAIYPGDGDTRYTQKFKGKATLTADKSSSTAYMQLSSLASEDSAVYYCARHNSYGMDYWGQGTSVTVSS
VL: DIVMTQSPSSLTVTAGEKVTMSCKSSQSLLNSGNQKSYLTWYQQKPGQPPKLLIYWASTRESGVPDRFTGSGSGTDFTLTINSVQAEDLAVYYCQNDYSYPLFTFGSGTKLEIR
B3: 1A7 (antibody, V domains shown)
VH: QVQLVQSGPELKKPGETVKISCKASGYTFTNYGMNWVKQAPGKGLKWMGWINTDTGEPTYTEDFQGRFAFSLETSASTVYLQFNNLKNEDTATYFCAREGVHFDYWGQGTTVTVSS
VL: QIVLTQSPAIMSASPGEKVTMTCSASSSVSYMHWYQQKSGTSPKRWIYDTSKLASGVPARFSGSGSGTSYSLTISSMEAEDAATYYCQQWSSNPFTFGSGTKLEIK
notes: murine hybridoma monoclonal antibody; also called monoclonal antibody 1A7; MAb 1A7
B4: 2F3 (antibody, V domains shown)
VH: EVKLEESGGGLVQPGGSMKLSCAASGFTFSDAWLDWVRQSPEKGLEWVAEIRSKANNHATNYAESVKGRFTISRDDSKSSVYLQMNSLRAEDTGIYFCTPSFAYWGQGTTVTVSS
VL: DIQMTQSPASLSASVGETVTITCRASGNIYNYLAWFQQKQGKSPQLLVYNAKTLPDGVPSRFSGSGSGTQYFLKINSLQPEDFGSYYCQHFWAIPYTFGGGTKLEIKR
notes: murine hybridoma monoclonal antibody; also called monoclonal antibody 2F3; MAb 2F3

Legend:
[1] = target: human Sp35 protein expressed on transfected cells (human) (UniProt Q96FE5); assay: FACS on live human LINGO-1 (Sp35) transfected 293 cells, PE-labelled secondary antibody alone (no primary antibody), FL2-H
[2] = target: T1, Sp35-Fc fusion protein (human Sp35 residues 1-532 fused to hinge and Fc of human IgG1) (human, UniProt Q96FE5 40-538); assay: ELISA
T1 construct: also called LINGO-1-Fc; not shown: hinge and Fc region of human IgG1
T1 sequence: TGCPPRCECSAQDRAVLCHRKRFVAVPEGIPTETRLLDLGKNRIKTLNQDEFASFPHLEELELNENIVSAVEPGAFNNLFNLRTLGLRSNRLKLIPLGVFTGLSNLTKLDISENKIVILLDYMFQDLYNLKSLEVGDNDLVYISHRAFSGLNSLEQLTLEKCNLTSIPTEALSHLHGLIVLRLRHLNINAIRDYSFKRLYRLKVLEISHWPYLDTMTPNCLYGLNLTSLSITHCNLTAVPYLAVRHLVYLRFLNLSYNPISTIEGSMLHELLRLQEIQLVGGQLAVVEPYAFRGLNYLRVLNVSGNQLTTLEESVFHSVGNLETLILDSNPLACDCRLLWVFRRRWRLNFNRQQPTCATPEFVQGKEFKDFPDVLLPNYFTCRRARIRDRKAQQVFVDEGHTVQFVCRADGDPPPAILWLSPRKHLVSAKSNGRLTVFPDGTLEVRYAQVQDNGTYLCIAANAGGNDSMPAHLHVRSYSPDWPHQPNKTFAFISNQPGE

[3] = target: T2, Sp35 fragment amino acids 34-532 of SEQ ID NO:2 fused to hinge and Fc of IgG1 (human, UniProt Q96FE5 40-538); assay: ELISA
T2 construct: the mature proteins should be the same; not shown: hinge and Fc regions of IgG1
T2 sequence: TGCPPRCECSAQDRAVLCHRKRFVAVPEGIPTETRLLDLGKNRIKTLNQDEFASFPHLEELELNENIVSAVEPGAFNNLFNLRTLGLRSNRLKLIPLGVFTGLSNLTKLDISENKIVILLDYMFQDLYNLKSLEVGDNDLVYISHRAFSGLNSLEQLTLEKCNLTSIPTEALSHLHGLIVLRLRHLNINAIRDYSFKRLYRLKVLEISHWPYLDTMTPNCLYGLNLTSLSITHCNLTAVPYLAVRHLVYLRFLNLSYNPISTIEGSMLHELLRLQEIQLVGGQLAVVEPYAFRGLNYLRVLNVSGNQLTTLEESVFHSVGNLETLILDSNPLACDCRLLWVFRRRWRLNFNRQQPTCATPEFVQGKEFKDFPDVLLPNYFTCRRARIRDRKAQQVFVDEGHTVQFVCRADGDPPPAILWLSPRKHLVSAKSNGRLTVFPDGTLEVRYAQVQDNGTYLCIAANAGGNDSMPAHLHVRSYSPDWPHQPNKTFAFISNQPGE

[4] = target: T3, full-length human Sp35 with N-terminal hemagglutinin (HA) tag, from lysate of transfected COS-1 cells (human, UniProt Q96FE5 40-620); assay: immunoprecipitation
T3 construct: also called huSp35 (immunoprecipitation); not shown: HA tag at the N-terminus
T3 sequence: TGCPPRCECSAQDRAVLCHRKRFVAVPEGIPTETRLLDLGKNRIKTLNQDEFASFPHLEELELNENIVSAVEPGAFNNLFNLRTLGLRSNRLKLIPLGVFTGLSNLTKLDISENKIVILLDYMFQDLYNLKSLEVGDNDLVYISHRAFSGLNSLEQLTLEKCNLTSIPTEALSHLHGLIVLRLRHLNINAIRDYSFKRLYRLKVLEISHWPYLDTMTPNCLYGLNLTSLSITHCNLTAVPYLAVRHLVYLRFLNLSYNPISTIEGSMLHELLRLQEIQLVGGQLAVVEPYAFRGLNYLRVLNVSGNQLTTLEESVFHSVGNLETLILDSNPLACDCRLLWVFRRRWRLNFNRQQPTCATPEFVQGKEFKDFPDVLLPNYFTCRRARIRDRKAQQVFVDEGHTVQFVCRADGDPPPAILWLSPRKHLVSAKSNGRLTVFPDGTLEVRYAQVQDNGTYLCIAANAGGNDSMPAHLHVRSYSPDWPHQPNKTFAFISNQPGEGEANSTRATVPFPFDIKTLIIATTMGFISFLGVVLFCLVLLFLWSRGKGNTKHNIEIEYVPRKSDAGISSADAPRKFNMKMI
Description: (§1) To perform the immunoprecipitation, COS-1 cells expressing Sp35, fused to a hemaglutinin (HA) tag on the N-terminus, were produced by transiently transfecting COS-1 cells with a DNA construct which expresses the full-length Sp35 protein with an HA tag. Cells were harvested 48 hr after transfection and were lysed in 1 ml lysis buffer (50 mM HEPES, pH 7.5, 150 mM NaCl, 1.5 mM MgCl₂, 1 mM EGTA, 1% Triton X-100 and 10% glycerol) for 30 min at 4° C. After centrifugation at 14,000×g for 15 min, the supernatants were incubated with ProteinA/G-Sepharose beads (Santa Cruz) at 4° C. for 1 hr, and then incubated at 4° C. for 1 hr with either the 1A7 or the 2F3 anti-Sp35 murine monoclonal antibodies. The beads were washed 3 times with lysis buffer, boiled in Laemmli sample buffer, subjected to 4-20% SDS-PAGE, and analyzed by Western blotting using an antibody which recognizes the HA tag. As shown on the SDS-PAGE gel, monoclonal antibodies 1A7 and 2F3, immunoprecipitated human and murine Sp35 (FIG. 1). […] Similarly, monoclonal antibodies 1G7, 2B10, 2F3, 3P4C2.2D2, 3P4C8.2G9, Li01, Li03, Li05, Li06, Li07, Li08, Li11 and Li12 immunoprecipitate human or mouse or human and mouse Sp35 (See Table 3B). Additionally, Li08 immunoprecipitates AP-Sp35 and monoclonal antibodies 1B6.4 and 3E3.1 immunoprecipitate endogenous Sp35 (See Table 3B).

[5] = target: T4, Sp35 polypeptide consisting of amino acids 34-534 of human Sp35 (human, UniProt Q96FE5 40-540); assay: similar experiments (ELISA)
T4 construct: No fusion partner stated
T4 sequence: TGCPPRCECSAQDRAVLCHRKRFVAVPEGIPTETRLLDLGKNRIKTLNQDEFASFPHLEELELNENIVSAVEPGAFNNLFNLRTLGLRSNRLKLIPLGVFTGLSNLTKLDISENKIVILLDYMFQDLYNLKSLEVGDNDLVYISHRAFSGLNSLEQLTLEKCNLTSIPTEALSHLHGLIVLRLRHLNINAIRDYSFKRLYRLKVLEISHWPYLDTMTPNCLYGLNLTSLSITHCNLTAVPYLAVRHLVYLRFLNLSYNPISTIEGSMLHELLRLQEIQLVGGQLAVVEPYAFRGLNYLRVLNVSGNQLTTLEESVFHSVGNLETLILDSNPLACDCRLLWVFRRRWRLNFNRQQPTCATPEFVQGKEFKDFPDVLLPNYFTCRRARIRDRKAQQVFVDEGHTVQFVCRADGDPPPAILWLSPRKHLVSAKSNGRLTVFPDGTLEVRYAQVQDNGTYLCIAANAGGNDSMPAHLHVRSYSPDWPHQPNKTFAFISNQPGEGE

[6] = target: T5, mouse Sp35 protein (form in the assay not stated) (mouse, UniProt Q9D1T0 36-532, limits assumed); assay: method not stated (Example 5); KD determination (Example 5, method not stated), murine Sp35
T5 construct: also called mSp35; murine Sp35
T5 sequence (looked up): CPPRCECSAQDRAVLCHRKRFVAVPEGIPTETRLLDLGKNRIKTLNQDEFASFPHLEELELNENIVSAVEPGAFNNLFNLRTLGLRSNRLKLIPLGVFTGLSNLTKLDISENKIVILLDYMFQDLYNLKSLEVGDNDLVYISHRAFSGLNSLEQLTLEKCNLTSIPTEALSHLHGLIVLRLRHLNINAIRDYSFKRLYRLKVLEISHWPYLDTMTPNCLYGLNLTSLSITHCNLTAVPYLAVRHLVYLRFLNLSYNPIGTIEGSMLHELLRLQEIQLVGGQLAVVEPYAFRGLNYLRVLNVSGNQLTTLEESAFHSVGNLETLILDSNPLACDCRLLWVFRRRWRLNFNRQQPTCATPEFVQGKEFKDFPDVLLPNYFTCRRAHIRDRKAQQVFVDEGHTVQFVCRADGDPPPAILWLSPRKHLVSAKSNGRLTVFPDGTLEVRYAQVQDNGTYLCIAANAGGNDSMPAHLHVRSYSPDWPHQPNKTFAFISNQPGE

[7] = target: T6, full-length murine Sp35 with HA tag, from lysate of transfected cells (mouse, UniProt Q9D1T0 34-614, limits assumed); assay: immunoprecipitation
T6 construct: also called mSp35 (immunoprecipitation); not shown: HA tag
T6 sequence (looked up): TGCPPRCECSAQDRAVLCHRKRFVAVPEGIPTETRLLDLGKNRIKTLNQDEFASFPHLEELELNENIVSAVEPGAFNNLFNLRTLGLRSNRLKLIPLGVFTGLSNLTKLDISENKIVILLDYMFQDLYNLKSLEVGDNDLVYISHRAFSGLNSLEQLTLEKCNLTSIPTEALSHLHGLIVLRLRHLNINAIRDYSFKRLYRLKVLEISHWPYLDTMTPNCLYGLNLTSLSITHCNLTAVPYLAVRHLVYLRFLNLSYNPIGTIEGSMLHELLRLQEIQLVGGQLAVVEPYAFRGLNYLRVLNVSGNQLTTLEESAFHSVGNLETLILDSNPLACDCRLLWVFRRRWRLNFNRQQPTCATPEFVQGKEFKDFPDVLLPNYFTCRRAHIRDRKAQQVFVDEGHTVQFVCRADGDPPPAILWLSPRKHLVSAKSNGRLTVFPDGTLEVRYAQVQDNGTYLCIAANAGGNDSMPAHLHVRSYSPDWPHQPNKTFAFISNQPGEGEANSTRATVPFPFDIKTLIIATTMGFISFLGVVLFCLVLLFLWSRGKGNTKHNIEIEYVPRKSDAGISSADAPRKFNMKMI
Description: as §1

[8] = target: T7, mouse Sp35 protein expressed on transfected cells (mouse, UniProt Q9D1T0 36-614); assay: FACS
T7 construct: whole, on cells; also called mSp35
T7 sequence (looked up): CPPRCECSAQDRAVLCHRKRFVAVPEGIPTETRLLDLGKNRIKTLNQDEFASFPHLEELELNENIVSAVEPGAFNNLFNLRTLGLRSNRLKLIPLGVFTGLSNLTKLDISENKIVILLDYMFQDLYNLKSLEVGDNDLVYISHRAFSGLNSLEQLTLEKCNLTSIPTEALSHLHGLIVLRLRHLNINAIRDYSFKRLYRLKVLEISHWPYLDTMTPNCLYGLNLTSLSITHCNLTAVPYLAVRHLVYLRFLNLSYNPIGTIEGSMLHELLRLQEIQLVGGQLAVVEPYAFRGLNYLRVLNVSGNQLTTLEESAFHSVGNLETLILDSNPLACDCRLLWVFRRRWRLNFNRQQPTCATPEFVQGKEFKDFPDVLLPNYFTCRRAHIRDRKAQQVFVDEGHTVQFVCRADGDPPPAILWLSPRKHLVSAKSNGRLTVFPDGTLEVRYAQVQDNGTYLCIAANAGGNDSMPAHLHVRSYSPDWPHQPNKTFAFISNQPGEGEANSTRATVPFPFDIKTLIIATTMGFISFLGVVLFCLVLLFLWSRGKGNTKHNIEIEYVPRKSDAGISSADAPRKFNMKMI
From the text: To further characterize the binding properties of hybridoma-derived anti-Sp35 mAbs 1A7 and 2F3 produced as described in Example 3, binding to both fixed and live COS-7 or 293 cells expressing mouse or human Sp35 was compared.

Molecule | binding result [2] | binding result [3] | binding result [4] | binding result [5] | also measured
2nd Ab only (antibody) | – | – | – | – | (FL2-H) Geom. Mean [1]: 6.6; (FL2-H) Mean [1]: 8.78; (FL2-H) Median [1]: 6.76; fraction of cells in the marker gate (FL2-H histogram) [1]: 5.52
B1 | binds | binds | binds | binds | –
B2 | binds | binds | binds | binds | –
B3 | – | – | – | – | Kd [6]: 20 µM
B4 | – | – | – | – | binding result [7]: binds; binding result [8]: binds
